Each block holds one binder with its values, some of them ahead of it.
Target: recombinant mouse fibroblast activation protein (mouse) (UniProt P97321)
Assay: BLI; biotinylated bait protein (30 nM) loaded on Octet streptavidin (SAX) biosensors; serially diluted VNAR-Fc (300-0.412 nM) as analyte; PBS with 1% BSA; kinetic analysis with a bivalent analyte model

Sequence of recombinant mouse fibroblast activation protein (mouse) (P97321 whole entry): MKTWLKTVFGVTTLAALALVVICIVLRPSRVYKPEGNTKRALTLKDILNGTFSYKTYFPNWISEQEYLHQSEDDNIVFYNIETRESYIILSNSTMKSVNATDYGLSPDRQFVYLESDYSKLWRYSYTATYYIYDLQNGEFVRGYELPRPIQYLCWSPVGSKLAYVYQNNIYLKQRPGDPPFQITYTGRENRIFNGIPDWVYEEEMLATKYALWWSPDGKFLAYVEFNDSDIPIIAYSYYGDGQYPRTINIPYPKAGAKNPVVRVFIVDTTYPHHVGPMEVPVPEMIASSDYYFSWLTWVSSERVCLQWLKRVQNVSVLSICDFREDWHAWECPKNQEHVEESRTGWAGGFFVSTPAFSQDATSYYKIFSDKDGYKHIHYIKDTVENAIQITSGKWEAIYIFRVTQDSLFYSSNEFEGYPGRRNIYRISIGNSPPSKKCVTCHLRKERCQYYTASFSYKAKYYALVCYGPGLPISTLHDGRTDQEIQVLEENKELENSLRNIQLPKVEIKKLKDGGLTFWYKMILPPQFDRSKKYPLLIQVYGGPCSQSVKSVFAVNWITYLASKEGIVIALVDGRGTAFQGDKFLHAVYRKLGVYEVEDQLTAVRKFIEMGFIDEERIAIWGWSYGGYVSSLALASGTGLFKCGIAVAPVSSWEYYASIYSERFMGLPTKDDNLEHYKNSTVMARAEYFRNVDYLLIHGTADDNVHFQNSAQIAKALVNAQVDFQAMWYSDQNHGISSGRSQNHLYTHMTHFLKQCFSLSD

Kd: 79.5 nM
B1: NGS2405-Fc (Fc fusion)
chain: ARVDQTPQTITKETGESLTINCVLRDSNCALSFTYWYRKKSGSTNEESISKGGRYVETVNSGSKSFSLRINDLTVEDSGTYRCNVYVGGGCPHWIDVYGDGTAVTVN

Kd: 14.2 nM
B2: H4-Fc (Fc fusion)
chain: ARVDQTPQTITKETGESLTINCVLRDSNCALSSTYWYRKKSGSTNEESISKGGRYVETVNSGSKSFSLRINDLTVEDSGTYRCNVYVAGMSPCLSWGDVYGDGTAVTVN
